Legend:
SSF (full-length) = target: T1, SSF (full-length) (Escherichia coli F plasmid, UniProt P18310 1-179); test: MST
T1 sequence: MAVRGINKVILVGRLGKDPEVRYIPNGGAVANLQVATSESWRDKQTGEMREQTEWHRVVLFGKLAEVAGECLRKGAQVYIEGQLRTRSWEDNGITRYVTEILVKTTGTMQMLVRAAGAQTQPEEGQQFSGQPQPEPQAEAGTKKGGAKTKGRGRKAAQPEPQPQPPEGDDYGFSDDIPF

SSB (full-length) = SSB (full-length) (Escherichia coli, UniProt P0AGE0 1-178); test: MST
Chain of SSB (full-length) (P0AGE0 whole entry): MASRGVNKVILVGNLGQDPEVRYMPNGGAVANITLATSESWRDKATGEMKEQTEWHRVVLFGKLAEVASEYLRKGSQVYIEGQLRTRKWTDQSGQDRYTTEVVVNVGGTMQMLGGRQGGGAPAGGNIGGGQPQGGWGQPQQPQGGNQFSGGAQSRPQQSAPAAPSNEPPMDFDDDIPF

Q: With GGCAAATTACTCCTGTAATTTGCC (structured_DNA) [hairpin dsDNA] as the binder, how does the Kd (SSF (full-length)) read?
A: The Kd was 45.3 µM.

Q: Does GGCAAATTACTCCTGTAATTTGCC (structured_DNA) [hairpin dsDNA] bind (SSB (full-length))?
A: Result: no binding

— publication doi:10.1101/2024.05.23.595439
